Test results taken from US20260209345A1 (IOMX THERAPEUTICS, published 2026).
Substitutions are numbered along the chain they refer to.

B1: A-022 (antibody, V domains shown)
VH: QVQLVQSGAEVKKPGSSVKVSCKASGGTFGGSAISWVRQAPGQGLEWMGGIVLAYSTSVYAQKFQGRVTITADESTSTAYMELSSLRSEDTAVYYCAKGPPVGSSSWYTDWYFDLWGRGTLVTVSS
VL: SYELTQPPSVSVSPGQTASITCSGDKLGDKYASWYQQKPGQSPVLVIYQDSKRPSGIPERFSGSNSGNTATLTISGTQAEDEADYYCLSYGAHSHGVVFGGGTKLTVL
notes: tested as IgG
B2: A-037 (antibody, V domains shown)
VH: QVQLVQSGAEVKKPGSSVKVSCKASGGTFSSYAISWVRQAPGQGLEWMGGIIPIFGTANYAQKFQGRVTITADESTSTAYMELSSLRSEDTAVYYCARVHLYYHFPASYFDYWGQGTLVTVSS
VL: B1 VL with S89A, Y90S, G91L, A92G, H93T, S94G, H95G, G96V, V97Y
notes: tested as IgG
B3: A-001 (antibody, V domains shown)
VH: QVQLVQSGAEVKKPGSSVKVSCKASGGTFSSYAISWVRQAPGQGLEWMGGIIPIFGTANYAQKFQGRVTITADESTSTAYMELSSLRSEDTAVYYCAKDLGTYSSGWPYYYGMDVWGQGTTVTVSS
VL: SYELTQPPSVSVSPGQTASITCSGDKLGDKYASWYQQKPGQSPVLVIYQDSKRPSGIPERFSGSNSGNTATLTISGTQAEDEADYYCQSTTHTSFVFGGGTKLTVL
notes: tested as IgG; also called parental antibody A-001
B4: A-010 (antibody, V domains shown)
VH: B3 VH with S30Q, Y32Q, I34F, S35A, G50S, I54G, G56S
VL: B3 VL
B5: A-009 (antibody, V domains shown)
VH: B3 VH with S31V, Y32T, S35L, I54S, G56T, T57S, Q62S
VL: B3 VL
notes: tested as IgG
B6: A-007 (antibody, V domains shown)
VH: B3 VH with T28S, S30R, S31E, I34F, G50S, I54T, G56H, A58S, Q62G
VL: B3 VL
notes: tested as IgG
B7: A-046 (antibody, V domains shown)
VH: B3 VH with T28S, S30Q, S35N, I54G, G56S
VL: B3 VL with S89L, T91H, H92L, S94I, F95Y
notes: tested as IgG
B8: A-036 (antibody, V domains shown)
VH: B3 VH
VL: B3 VL with S89L, T91H, H92L, S94I, F95Y
notes: tested as IgG
B9: A-004 (antibody, V domains shown)
VH: B3 VH with S30R, S31T, Y32K, S35A, G56S, Q62P
VL: B3 VL
notes: tested as IgG
B10: A-005 (antibody, V domains shown)
VH: B3 VH with S30T, S31I, S35N, I54G, G56H, T57S
VL: B3 VL
notes: tested as IgG
B11: A-012 (antibody, V domains shown)
VH: B3 VH with F29I, S31E, I34F, S35L, I54K, G56H
VL: B3 VL
notes: tested as IgG
B12: A-013 (antibody, V domains shown)
VH: B3 VH with S30R, S31Q, Y32E, I34F, G50S, G56Y, T57S, A58S
VL: B3 VL
notes: tested as IgG
B13: A-014 (antibody, V domains shown)
VH: B3 VH with S35N, G56H, A58S
VL: B3 VL
notes: tested as IgG
B14: A-006 (antibody, V domains shown)
VH: B3 VH with S31Q, I34F, G50S, I54G, G56T, A58S, Q62H
VL: B3 VL
notes: tested as IgG
B15: A-015 (antibody, V domains shown)
VH: B3 VH with T28S, S30Q, S35N, I54G, G56S
VL: B3 VL
notes: tested as IgG
B16: A-008 (antibody, V domains shown)
VH: B3 VH with S30A, S31E, Y32S, S35L, I52V, I54S, G56Y, T57S
VL: B3 VL
notes: tested as IgG
B17: A-011 (antibody, V domains shown)
VH: B3 VH with T28S, S31H, Y32S, I34F, G50S, I54A, G56Y
VL: B3 VL
notes: tested as IgG
B18: A-016 (antibody, V domains shown)
VH: B3 VH with I34F, S35N, G50S, G56K
VL: B3 VL
notes: tested as IgG

Tests used:
recombinant LILRB1 ECD [1] = molecular target: T1, recombinant LILRB1 ECD (human, UniProt Q8NHL6 24-461); experiment: ELISA, LILRB1 ECD binding to HLA-G-Fc
T1 construct: also called biotinylated LILRB1 ECD
Protocol: (§1) HLA-G inhibition was tested by ELISA. 384-well Maxisorp plates were coated with 2 ug/mL B2M-HLA-G fused to a mouse IgG2a-Fc and the plates were blocked with 2% (w/v) BSA in PBST. […] 15 ul of the antibody dilution series (300 nM to 0.3 nM) were mixed with 30 μL of the pre-mixed LILRB/Avidin-HRP solution (final antibody concentration 100 nM to 0.1 nM) and incubated for 1 h at room temperature. After three wash cycles with PBST, 20 μL of the antibody/LILRB/Avidin-HRP solution was transferred to the plate with immobilized HLA-G and incubated for 15 min at room temperature. After three wash cycles with PBST, residual LILRB binding to HLA-G was detected by developing the ELISA with TMB substrate.

recombinant LILRA1 ECD = molecular target: T2, recombinant LILRA1 ECD (human, UniProt O75019 17-461); experiment: BLI, IgG on AHC sensor, ECD in solution
T2 construct: whole canonical entry named; also called LILA1
Protocol: (§2) Briefly, IgGs were captured on anti-human capture (AHC) biosensors (Sartorius). […] Subsequently, the sensors were dipped into 1× Kinetics Buffer to measure the dissociation over 420 s. All sensorgrams were double referenced against 1× Kinetics Buffer and unloaded […] sensors to subtract sensor drifts and potential reference binding of the analytes. The affinities were determined by applying a 1:1 binding model.

recombinant LILRB1 ECD [2] = molecular target: T1, recombinant LILRB1 ECD; experiment: BLI, IgG on AHC sensor, ECD in solution
Protocol: as §2

recombinant LILRA3 = molecular target: T3, recombinant LILRA3 (human, UniProt Q8N6C8 24-439); experiment: BLI, IgG on AHC sensor, ECD in solution
T3 construct: whole entry named; also called LILRA3 ECD; LILA3
Protocol: as §2

recombinant LILRB2 ECD [3] = molecular target: T4, recombinant LILRB2 ECD (human, UniProt Q8N423 22-460); experiment: BLI, IgG on AHC sensor, ECD in solution
T4 construct: also called biotinylated LILRB2 ECD
Protocol: as §2

recombinant LILRB2 ECD [4] = molecular target: T4, recombinant LILRB2 ECD; experiment: ELISA, LILRB2 ECD binding to HLA-G-Fc
Protocol: as §1

T3 sequence (Q8N6C8 24-439 limits assumed): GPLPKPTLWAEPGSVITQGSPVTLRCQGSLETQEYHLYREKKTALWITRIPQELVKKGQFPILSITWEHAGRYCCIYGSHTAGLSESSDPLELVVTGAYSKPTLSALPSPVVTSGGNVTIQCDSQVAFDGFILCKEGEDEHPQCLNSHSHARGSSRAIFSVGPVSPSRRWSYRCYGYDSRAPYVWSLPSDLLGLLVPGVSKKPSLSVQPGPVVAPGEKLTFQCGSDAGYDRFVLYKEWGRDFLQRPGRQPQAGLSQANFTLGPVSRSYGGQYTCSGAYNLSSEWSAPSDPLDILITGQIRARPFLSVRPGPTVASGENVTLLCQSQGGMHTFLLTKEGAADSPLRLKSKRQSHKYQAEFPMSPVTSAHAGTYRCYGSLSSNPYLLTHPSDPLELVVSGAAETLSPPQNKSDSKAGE
T2 sequence (O75019 17-461 limits assumed): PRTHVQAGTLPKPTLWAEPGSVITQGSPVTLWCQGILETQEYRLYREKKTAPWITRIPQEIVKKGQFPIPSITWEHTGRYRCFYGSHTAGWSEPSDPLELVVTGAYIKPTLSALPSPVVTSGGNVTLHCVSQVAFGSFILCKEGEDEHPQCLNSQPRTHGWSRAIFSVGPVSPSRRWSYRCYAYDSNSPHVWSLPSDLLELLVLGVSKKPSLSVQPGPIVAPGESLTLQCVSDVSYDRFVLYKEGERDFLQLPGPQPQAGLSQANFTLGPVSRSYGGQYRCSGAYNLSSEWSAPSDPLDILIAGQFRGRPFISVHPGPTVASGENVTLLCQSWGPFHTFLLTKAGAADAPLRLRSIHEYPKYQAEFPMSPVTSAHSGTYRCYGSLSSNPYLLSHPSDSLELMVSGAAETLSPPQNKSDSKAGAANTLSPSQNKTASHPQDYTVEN
T1 sequence (Q8NHL6 24-461 limits assumed): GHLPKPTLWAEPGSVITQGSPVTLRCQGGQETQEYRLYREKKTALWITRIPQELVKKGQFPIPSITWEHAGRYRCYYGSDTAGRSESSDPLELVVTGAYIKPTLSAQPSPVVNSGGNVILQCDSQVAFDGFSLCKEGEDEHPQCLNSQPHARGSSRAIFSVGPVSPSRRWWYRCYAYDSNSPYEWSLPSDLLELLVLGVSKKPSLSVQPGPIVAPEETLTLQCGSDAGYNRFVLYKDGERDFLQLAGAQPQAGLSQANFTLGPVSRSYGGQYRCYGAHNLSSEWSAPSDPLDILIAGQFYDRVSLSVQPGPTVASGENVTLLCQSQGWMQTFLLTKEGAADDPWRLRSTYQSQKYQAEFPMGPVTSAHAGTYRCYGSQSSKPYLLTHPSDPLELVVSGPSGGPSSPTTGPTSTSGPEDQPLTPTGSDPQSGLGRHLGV
T4 sequence (Q8N423 22-460 limits assumed): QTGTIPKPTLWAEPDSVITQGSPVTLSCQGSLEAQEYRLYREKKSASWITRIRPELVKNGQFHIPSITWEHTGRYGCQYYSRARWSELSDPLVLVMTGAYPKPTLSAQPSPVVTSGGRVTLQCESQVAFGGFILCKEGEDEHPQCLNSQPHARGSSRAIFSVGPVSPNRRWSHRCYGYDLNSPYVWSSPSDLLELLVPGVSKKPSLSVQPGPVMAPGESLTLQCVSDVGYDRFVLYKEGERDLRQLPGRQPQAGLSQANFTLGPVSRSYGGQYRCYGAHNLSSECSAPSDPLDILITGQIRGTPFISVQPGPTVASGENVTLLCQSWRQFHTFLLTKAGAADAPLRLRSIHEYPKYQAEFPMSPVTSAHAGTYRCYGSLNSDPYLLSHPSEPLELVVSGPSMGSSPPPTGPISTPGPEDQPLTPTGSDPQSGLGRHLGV

Molecule | IC50 (recombinant LILRB1 ECD [1]) | Kd (recombinant LILRA1 ECD) | Kd (recombinant LILRB1 ECD [2]) | Kd (recombinant LILRA3) | Kd (recombinant LILRB2 ECD [3]) | IC50 (recombinant LILRB2 ECD [4]) | binding result (recombinant LILRA1 ECD)
Ref051 [BND-22, LILRB1 specific] (antibody) | 1.8 nM | 15.1 nM | 6.9 nM | 39.4 nM |  |  | 
B1 | 3.9 nM |  | 5.2 nM | 317 nM | 4.4 nM | 3.1 nM | 
B2 | 3.8 nM | 1270 nM | 16 nM |  | 2 nM | 3.5 nM | 
B3 | 5.1 nM | 1820 nM | 157 nM | 576 nM | 36.4 nM | 3.1 nM | 
B4 | 4.1 nM | 760 nM | 4.5 nM | 217 nM | 3.3 nM | 3.7 nM | 
B5 | 5.5 nM | 194 nM | 3.7 nM | 92.8 nM | 3.4 nM | 5.5 nM | 
B6 | 3.3 nM | 322 nM | 11.7 nM | 255 nM | 1.2 nM | 3.6 nM | 
B7 | 2 nM |  | 12.6 nM |  | 9.4 nM | 3.7 nM | no binding (tested: 900 nM)
B8 | 1.2 nM | 42900 nM | 35.8 nM |  | 18.6 nM | 2.7 nM | 
B9 | 4.4 nM | 569 nM | 12.8 nM | 232 nM | 7.1 nM | 4.5 nM | 
B10 | 5 nM | 407 nM | 1 nM | 161 nM | 3.3 nM | 4.3 nM | 
B11 | 3.3 nM | 469 nM | 12.8 nM | 166 nM | 6.8 nM | 3.8 nM | 
B12 | 4.5 nM | 1080 nM | 6.3 nM | 622 nM | 4.2 nM | 4.6 nM | 
B13 | 3.8 nM | 471 nM | 4.4 nM | 58.8 nM | 2.3 nM | 4.2 nM | 
B14 | 6.1 nM | 190 nM | 0.5 nM | 182 nM | 2.3 nM | 4.8 nM | 
B15 | 4.4 nM | 868 nM | 5 nM | 202 nM | 3.5 nM | 3.2 nM | 
B16 | 4.1 nM | 1520 nM | 7.4 nM | 355 nM | 8.8 nM | 4 nM | 
B17 | 6.1 nM | 470 nM | 9.3 nM | 137 nM | 4.4 nM | 5.5 nM | 
B18 | 4.4 nM | 402 nM | 6.5 nM | 116 nM | 1.4 nM | 5.1 nM | 
